Assay: yeast display, Sf9 membrane polyspecificity reagent, FACS + sequencing; frameworks hold sequencing errors
How it was run: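 Using colony PCR, genes from sorted yeast display clones were amplified, then sequenced on MiSeq at 2 × 250 and filtered by CDR length. The clones had been stained with 10% biotinylated, detergent-solubilized Sf9 membrane reagent for 1 hour at 4 °C and sorted by FACS into low and high (top ~1%) gates on anti-HA and streptavidin fluorescence. Polyreactivity labels come from the gate of origin.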

| Sequence | polyreactivity (PSR sort gate) |
| --- | --- |
| EEELVESGGGLVQAGGSLLLSCAAYGRILPRNDMGWYRQAPGKERELVAVISSGGSTYYPDSVKGRFTISRDNAKNTVYLQINSVKPEDTAVYYCLGGYYYLQYDYWGQGTQVTVSS | low polyreactivity |
| EEELVESGGGLVQAGGSLRLSCAASARISTVMLWDWYRQAPGKDRELVAAITKSGGSTYYADSVKGRFTISRDNAKNTVYLQMNSLIPEDTAVYYCAADRYAILFYAEDYWGQGTQETVSS | low polyreactivity |
| EEELVESGGGLVQAGGSLRLSCAASGNIFEVNTMGWYRQAPGKERELVAAITSTGSTNYADSVKGRFTISRDNAKNTVYLQMNSLKPVDTAVYYSSATLEWYRYTYEYDYWGQGTQVTVSS | low polyreactivity |
| EEELVESGGGLVQAGGSLRLSCAASGRTFVYNAMGWYRQAPGTERELVAAITSGDSTYYADSVKGRFTISRDNAKNTVYLQMNSLKPEDTAVYYCATDYSGIFYWYDYWGQGTQVTVSS | low polyreactivity |
| EEELVESGGGLVQAGGSLRLSCAASGRTLAGYPMGWYRQAPGKERELVAAISSSGGSTYYADSVKGRFTISRDNAKNTVYLQMNSLKPEDTAVYYCNRYSSYIPYPYNYWGQGTQVTVSS | high polyreactivity |
| EEELVESGGGLVQAGGSLRLSCAASGSIFTHYAMGWYRPAPGKERELVAAISWSGGSTYYADSVKGRFTISRDNAKKTVYLQMNSLKPEDTAVYYCAAETYWGDDYWGQGTQVTVSS | high polyreactivity |
| EEELVESGGGLVQAGGSLRLSCAATGSIFVVNAMRWYRQAPGKERELVAAIARGGITNYADSVKGRFTISRDNAKNTVYLQMNSLKPEDTAVYYCNARGSRWVKPDRDYWGQGTQVTVSS | low polyreactivity |
| EEELVESGGGLVQAGVSLRISCAASGSIFNYNAMGWYRQAPGKERELVAAISRGGTTNYADSVKGRFTISRDNANNTVYLQMNSLKPEDTAVYYCAAKAYDYYGPVYYWGQGSQVTVSS | high polyreactivity |
| EVQLVESGGGLFQAGGSLRLSCAASGFTFYRYAMGWYRQAPGKERELVAGITWGGGRTYYADSVKGRFTISRDNAKNTVYFQMNSLKPEATAVYYCAAYYSQDSRRKYDYWGQVTQVTVSS | high polyreactivity |
| EVQLVESGGGLVQAGGSLRLSCAASGSIFSFYAMGWYRQAPGKERELVAAISRSAGRTYYADSVKGRFTISRDNATNTVYLQRNSLKPEDTAVYYCNKASWYNGEMDYWGQGTQVTVSS | high polyreactivity |
| EVQLVESGGGLVQAGGSLRLSCAASGSIYGSYAKGWYRQAPGKERELVAGITYRGSSTYYADSVKGRFTISRDNAKYTVYLLMNSLKPEDTAVYYCAADPVFDEYDYWGQGTQVTVSS | low polyreactivity |
| EVQLVESGGGLVQPGGSLRLSCAASGYIYSRYRMGWYRQAPGKGREFVAAISGGSSTTYADSVKGRFTISRDNSKNTVYLQMNSLRAEDTAVYYCAAYKIDSDPRVYWGQGTQVTVSS | low polyreactivity |
| EVQLVESRGGLVQAGGSLRLSCAASGSILVGYAMGWYRQAPGKERELVAAISFSGGSTYYADSVKGRFTISRDNAKNTVFLQLNSLKPEDTAVYYCASKRRVWIFYSSSDDYWGQGTQVTVSS | low polyreactivity |
| HAQLQESGGGLVQAGGSLRRSCAASGSIFRFSRMGWYRRAPGKERELVASIGFGSITYYADRVKGRFTISRDNANNTVYLQMNSLKPEDTAVYYCAVQVQDESWLDYWGQGTQVTVSC | low polyreactivity |
| HAQLQESGVGLVQAGGSLRRSCAASGSIFRFSGMGWYRRAPGKERELVASIGFGSITYYADRVKGRFTISRDNANNTEYLQMNSLKPEDTAVYYCAVQVQDESWLDYWGQGTQVTVSC | low polyreactivity |
| HDQLVESAAGLVQAGGSLRLSCAASVLTFYQNALGWYRQAAGKEMEFVAAISRRGGSTYYADSVKGRFTISRDNAKNTVYLQMNSLKPEDTAVYYCAADYKRKSDGDYWGQGTQVTVSS | high polyreactivity |
| HDQLVESGGGFVQAGGSLRLSCAASGSIFRYNPMGWYRQAPGKEMELVAAISYGGGITRYADSVKGRFTISRDNAKNTVYLQMNSLKPEDTAVYYCNKAYVWRRMDYWGQGTQVTVSS | high polyreactivity |
